The text below walks through data of paper PMC4161437, “Structural Correlates of Rotavirus Cell Entry” (PLoS Pathogens, 2014).

The target in experiment [1] is T1, rhesus rotavirus (RRV) outer-layer protein VP4, recombinant, wild type (rhesus rotavirus (RRV; G3 serotype), UniProt P12473 1-776, amine-specific Atto dye in some preparations (dye combinations varied)).
T1 construct: VP4, outer capsid spike protein of rhesus rotavirus (RRV; G3 serotype); recombinant, not cleaved by trypsin when added to DLPs; Recoated particles were treated with trypsin (cleavage to VP8* and VP5*) only after recoating; also called WT VP4; VP4 wt; source: baculovirus-infected insect cells, purified (AmSO4 precipitation, Phenyl HP, HiTrap Q, S200)
Put plainly: co-sedimentation; recoating: VP4 added to purified DLPs in at least 5-fold excess at pH 5.2 (sodium acetate), 1.5 h at room temperature; then VP7 in at least 3-fold molar excess with calcium, 30 min; recoated particles separated from excess components by cesium chloride gradient centrifugation; SDS-PAGE and fluorescence imaging of the purified particles. To be noted: both partners purified.

Experiment [2] concerns the target T2, rhesus rotavirus (RRV) VP4 hydrophobic-loop mutant V391D, recombinant (rhesus rotavirus (RRV; G3 serotype), UniProt P12473 1-776, V391D).
T2 construct: VP4 of rhesus rotavirus (RRV; G3 serotype) with V391D in a hydrophobic loop of VP5*; also called V391D VP4; VP4 fusion-loop mutant; source: baculovirus-infected insect cells, purified (AmSO4 precipitation, Phenyl HP, HiTrap Q, S200)
Described as above. To be noted: both partners purified.

B1: rhesus rotavirus (RRV) outer-layer glycoprotein VP7, recombinant, wild type (natural protein)
chain: QNYGINLPITGSMDTAYANSTQEETFLTSTLCLYYPTEAATEINDNSWKDTLSQLFLTKGWPTGSVYFKEYTDIASFSVDPQLYCDYNVVLMKYDATLQLDMSELADLILNEWLCNPMDITLYYYQQTDEANKWISMGSSCTIKVCPLNTQTLGIGCLTTDTATFEEVATAEKLVITDVVDGVNHKLDVTTATCTIRNCKKLGPRENVAVIQVGGSDVLDITADPTTAPQTERMMRINWKKWWQVFYTVVDYVNQIIQAMSKRSRSLNSAAFYYRI
modifications: amine-specific Atto dye in some preparations (dye combinations varied)
notes: VP7, outer capsid glycoprotein of rhesus rotavirus (RRV; G3 serotype); Ca2+-stabilized trimer; also called WT VP7; VP7 wt
Consider B1, for which the binding result in experiment [1] and in experiment [2] was “binds” throughout.
